# Measured values taken from patent US20110275122A1.
# “And” between values parts separate entries of the source, which are not always exact repeats. Equal entries are not always repeated. Where no end group is shown, it is not given here.
# B1: SEQ ID NO: 11 (TPO-mimetic fusion protein of Table 13) (Fc fusion, not shown: a dimerising Fc or GST)
# chain: QGCSWGGPTLKNWLQCVRAKHS
# modifications: cysteine pairing not given here; also: fused to an Fc molecule, side and linker not given here
# B2: SEQ ID NO: 9 (TPO-mimetic fusion protein of Table 13) (Fc fusion, not shown: a dimerising Fc or GST)
# chain: QGCSSGGPTLREWQQCRRMQHS
# modifications: cysteine pairing not given here; also: fused to an Fc molecule, side and linker not given here
# B3: SEQ ID NO: 241 (TPO-mimetic fusion protein of Table 13) (Fc fusion, not shown: a dimerising Fc or GST)
# chain: ICTEGCTLRLWLAERSRV
# modifications: cysteine pairing not given here; also: Fc fused at N- or C-terminus, side and linker not given here
# Target: human mpl receptor (human) (UniProt P40238)
# Assay: cell-based or functional assay
row,Pb EC50,Binder
1,2.8 ng/mL,"HPIEGPTLRLWLAARARA (Fc fusion, not shown: a dimerising Fc or GST, also: Fc fusion, side and linker not given here) [SEQ ID NO: 163 (TPO-mimetic fusion protein of Table 13)]"
2,1.43 ng/mL and 1.81 ng/mL,"WMMEGPTLRHWLAARARY (Fc fusion, not shown: a dimerising Fc or GST, also: Fc fusion, side and linker not given here) [SEQ ID NO: 115 (TPO-mimetic fusion protein of Table 13)]"
3,4.01 ng/mL,B1
4,0.44 ng/mL,B2
5,3.1 ng/mL,"LTMEGPTLRHWLAARATR (Fc fusion, not shown: a dimerising Fc or GST, also: Fc fusion, side and linker not given here) [SEQ ID NO: 225 (TPO-mimetic fusion protein of Table 13)]"
6,1.82 ng/mL,"YYLEGPTLRHWLAARAYL (Fc fusion, not shown: a dimerising Fc or GST, also: Fc fusion, side and linker not given here) [SEQ ID NO: 128 (TPO-mimetic fusion protein of Table 13)]"
7,1.84 ng/mL,"AWMEGPTLRHWLAARAAY (Fc fusion, not shown: a dimerising Fc or GST, also: Fc fusion, side and linker not given here) [SEQ ID NO: 149 (TPO-mimetic fusion protein of Table 13)]"
8,1.89 ng/mL,"DAIEGPTLRLWLEARRKQ (Fc fusion, not shown: a dimerising Fc or GST, also: Fc fusion, side and linker not given here) [SEQ ID NO: 139 (TPO-mimetic fusion protein of Table 13)]"
9,0.27 ng/mL,"CSSGGPTLREWQQCQRAQ (Fc fusion, part only; not given: Fc and insertion site, part only, cysteine pairing not given here; also: peptide inserted in a loop of an Fc) [Fc-Loop-(SEQ ID NO: 455)]"
10,2.08 ng/mL,"WVMEGPTLRHWLAARASL (Fc fusion, not shown: a dimerising Fc or GST, also: Fc fusion, side and linker not given here) [SEQ ID NO: 123 (TPO-mimetic fusion protein of Table 13)]"
11,1.83 ng/mL,B3
12,0.79 ng/mL,"YMMEGPTLRHWLATRAGR (Fc fusion, not shown: a dimerising Fc or GST, also: Fc fusion, side and linker not given here) [SEQ ID NO: 103 (TPO-mimetic fusion protein of Table 13)]"
13,0.28 ng/mL,"CSSGGPTLREWQQCSRAQ (Fc fusion, part only; not given: Fc and insertion site, part only, cysteine pairing not given here; also: peptide inserted in a loop of an Fc) [Fc-Loop-(SEQ ID NO: 454)]"
14,1.56 ng/mL,"WPMEGPTLRHWLAARAAR (Fc fusion, not shown: a dimerising Fc or GST, also: Fc fusion, side and linker not given here) [SEQ ID NO: 171 (TPO-mimetic fusion protein of Table 13)]"
15,1.09 ng/mL,"SAIEGPTLRHWLAWRAML (Fc fusion, not shown: a dimerising Fc or GST, also: Fc fusion, side and linker not given here) [SEQ ID NO: 117 (TPO-mimetic fusion protein of Table 13)]"
16,2.31 ng/mL,"CSSGGPTLREWQQCGRAQ (Fc fusion, part only; not given: Fc and insertion site, part only, cysteine pairing not given here; also: peptide inserted in a loop of an Fc) [Fc-Loop-(SEQ ID NO: 456)]"
